Results on two molecules are retold here after patent US20230139700A1 (BIO THERA SOLUTIONS, published 2023).

One test deals with T1, rhesus monkey OX40-his (rhesus monkey).
T1 construct: also called Rh-OX40; Rh-OX40-his
The experiment in a line: BLI (Fortebio), protein A sensor - antibody - OX40-his (100 nM).

The target of test [1] is T2, human OX40 on cells (human, UniProt P43489 29-277).
T2 construct: whole, on cells; the cell is named under assay; also called hOX40; Jurkat-hOX40 cells
T2 sequence (looked up): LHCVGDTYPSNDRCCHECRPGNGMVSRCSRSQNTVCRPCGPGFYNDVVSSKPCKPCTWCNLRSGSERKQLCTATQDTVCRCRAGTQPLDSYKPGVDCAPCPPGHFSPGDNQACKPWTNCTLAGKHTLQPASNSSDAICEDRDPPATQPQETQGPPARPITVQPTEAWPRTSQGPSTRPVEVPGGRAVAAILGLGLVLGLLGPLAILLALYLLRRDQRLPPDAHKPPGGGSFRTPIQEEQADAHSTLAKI
Kind of test: flow cytometry on Jurkat-hOX40 cells, 3-fold dilutions from 50 nM, MFI. The protocol: Antibody-F23-4k and antibody-F23-32k, as well as two control antibodies 11D4 and OX40mAb24 at different concentrations were used to incubate Jurkat-hOX40 cells.

The next test deals with T3, hCD27-FC (human, UniProt P26842 20-191, limits assumed).
T3 construct: not shown: Fc part
T3 sequence (looked up): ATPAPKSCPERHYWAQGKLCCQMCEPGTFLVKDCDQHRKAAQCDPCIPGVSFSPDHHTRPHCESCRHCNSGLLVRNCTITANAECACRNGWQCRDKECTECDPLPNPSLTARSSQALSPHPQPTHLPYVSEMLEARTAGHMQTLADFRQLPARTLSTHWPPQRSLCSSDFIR
The experiment in a line: ELISA, 10 ng antigen coated, HRP secondary antibody.

The target in a further test is T4, mouse OX40-his (mouse, UniProt P47741 20-211).
T4 construct: also called mOX40-his; not shown: his tag
T4 sequence (looked up): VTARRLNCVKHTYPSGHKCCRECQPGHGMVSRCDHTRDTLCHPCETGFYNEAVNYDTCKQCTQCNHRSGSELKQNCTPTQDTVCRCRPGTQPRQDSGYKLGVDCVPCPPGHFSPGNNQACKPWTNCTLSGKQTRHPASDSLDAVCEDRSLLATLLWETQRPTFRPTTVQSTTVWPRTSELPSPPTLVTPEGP
The test is described as above.

Test [2] deals with T5, human OX40 (coated on the plate, Example 8) (human, UniProt P43489 29-214).
T5 sequence (looked up): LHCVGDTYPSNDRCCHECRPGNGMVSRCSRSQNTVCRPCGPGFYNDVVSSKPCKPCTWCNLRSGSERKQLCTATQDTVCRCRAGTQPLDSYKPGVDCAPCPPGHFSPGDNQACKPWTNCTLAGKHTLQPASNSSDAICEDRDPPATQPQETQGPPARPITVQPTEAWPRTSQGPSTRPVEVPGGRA
The experiment in a line: ELISA, OX40 coated at 2 µg/mL, antibody 2-fold dilutions; human OX40, not cynomolgus monkey OX40. The protocol: (§1) The binding capacities of the antibody M-KF for human and cynomolgus monkey OX40 were determined by ELISA. The test method is as follows: human or cynomolgus monkey OX40 was coated on a plate and incubated overnight at 4° C. at a concentration of 2 μg/mL, and then incubated with antibody M-KF at different concentrations for detection. The antibody M-KF was 2-fold diluted in gradient from an initial concentration of 1 μg/mL or 2 μg/mL.

A further test deals with T6, cynomolgus monkey OX40 (cynomolgus monkey).
T6 chain: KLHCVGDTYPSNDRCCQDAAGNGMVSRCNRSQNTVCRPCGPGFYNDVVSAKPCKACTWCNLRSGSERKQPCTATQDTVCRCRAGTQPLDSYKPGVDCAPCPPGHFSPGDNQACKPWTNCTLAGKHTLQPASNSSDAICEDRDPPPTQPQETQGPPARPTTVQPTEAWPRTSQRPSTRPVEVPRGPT
The experiment in a line: ELISA, OX40 coated at 2 µg/mL, antibody 2-fold dilutions. The procedure:
as §1

Test [3] has as its target T2, human OX40 on cells. Kind of test: flow cytometry (MFI) on Jurkat cells overexpressing OX40, antibody titration; the unit nM comes from the legend paragraph 95. The source says:
(§2) Table 10 illustrates the CDRs of eight full antibodies containing these amino acid mutations, and the rest of the sequences are the same as those of antibody-F23-32K. […] The sequences of the anti-OX40 antibody (antibody M) are shown in Table 12; wherein, the expression cells used for the antibodies above (including antibody M) are CHO-S cells, and the method for preparing the antibody M-KF is as follows: the antibody M was identical to the antibody M-KF in terms of amino acid sequence and was expressed by the CHO cell line in which the fut8 gene was knocked out (the content of fucose in antibody M-KF was about 0%).

Test [4] deals with T2, human OX40 on cells. Kind of test: cell-based or functional assay.
The target of test [5] is T2, human OX40 on cells. Kind of test: flow cytometry (MFI) on Jurkat cells overexpressing OX40, antibody titration.
Text: as §2

B1: OX40mAb24 (antibody, V domains shown)
VH: QVQLQESGPGLVKPSQTLSLTCAVYGGSFSSGYWNWIRKHPGKGLEYIGYISYNGITYHNPSLKSRITINRDTSKNQYSLQLNSVTPEDTAVYYCARYKYDYDGGHAMDYWGQGTLVTVSS
VL: DIQMTQSPSSLSASVGDRVTITCRASQDISNYLNWYQQKPGKAPKLLIYYTSKLHSGVPSRFSGSGSGTDYTLTISSLQPEDFATYYCQQGSALPWTFGQGTKVEIKR
B1 yielded a Kd with rhesus monkey OX40-his of 3 nM. Besides, the EC50 in the test with human OX40 on cells [1] was determined as 5 nM. Also, the “ELISA (OD value)” value with hCD27-FC stood at 0.2 OD; in the test with mouse OX40-his, 0.17 OD.

B2: Antibody M-KF (antibody, human IgG1, kappa, V domains shown)
VH: QVQLVESGGGVVQPGESLRLSCAASGFTFSSYGMHWVRQAPGKGLEWVAVIWEDGSNQYYADSVKGRFTISRDNSKNTLYLQMNSLRAEDTAVYYCAKDNQDTSPDVGIDYWGQGTLVTVSS
VL: DIQMTQSPSSLSASVGDRVTITCRASQNISPFLNWYQQKPGKAPKLLIYAAVGLQSGVPSRFSGSGSGTDFTLTISSLQPEDFATYYCQQYTDYPLTFGGGTKVEIKR
modifications: fucose content about 0% (expressed in a CHO cell line with the fut8 gene knocked out)
For the molecule B2, in test [2], the EC50 was approximately 0.034 ng/mL. In the test with cynomolgus monkey OX40, this molecule gave an EC50 of approximately 0.0352 ng/mL. Further, the concentration for a half-maximal effect (EC50) with human OX40 on cells [3] worked out at 1.34 nM. Further, in the test with human OX40 on cells [4], the “ADCC killing, fold against antibody M” value was more than 2 fold; the “EC50 of ADCC killing, PBMC effector cells against Jurkat-hOX40 target cells (25:1)” value is approximately 1.89 ng/mL; the “NFκB reporter in Jurkat-hOX40-NFκB-2 cells with Raji cells, activation peak against 11D4” value is approximately 2.5 fold. In addition, in the test with human OX40 on cells [5], the “EC50 (read off the curve)” value was approximately 1 nM.
